Reference: patent US20220220224A1 (Hoffmann-La Roche, published 2022)

Experiments:
[1] = biological target: T1, recombinant biotinylated monomeric Fc fusion of murine Folate Receptor 1 (mu FolR1 ECD-AcTev-Fcknob-Avitag … (murine, UniProt P0DOX5 223-449 = IgG part, biotin on the C-terminal Avi tag)); assay: SPR Biacore, avidity set-up, antigen-Fc on SA chip
T1 construct: also called muFolR1-Fc; murine FolR1
Description: (§1) The avidity of the interaction between the anti-FolR1 IgGs or T cell bispecifics and the recombinant folate receptors was determined as described below (Table 38).
(§2) Recombinant biotinylated monomeric Fc fusions of human, cynomolgus and murine Folate Receptor 1 (FolR1-Fc) were directly coupled on a SA chip using the standard coupling instruction (Biacore, Freiburg/Germany). The immobilization level was about 160. The anti-FolR1 IgGs or T cell bispecifics were passed at a concentration range from 3.7 to 900 nM with a flow of 30 μL/minutes through the flow cells over 180 seconds. The dissociation was monitored for 600 seconds. Bulk refractive index differences were corrected for by subtracting the response obtained on reference flow cell immobilized with recombinant biotinylated murine IL2 receptor Fc fusion. The binding curves resulting from the bivalent binding of the IgG or T cell bispecifics were approximated to a 1:1 Langmuir binding (even though it is a 1:2 binding) and fitted with that model to get an apparent KD representing the avidity of the bivalent binding. The apparent avidity constants for the interactions were derived from the rate constants of the fitting using the Bia Evaluation software (GE Healthcare).

[2] = biological target: T2, recombinant biotinylated monomeric Fc fusion of human Folate Receptor 1 (huFolR1 ECD-AcTev-Fcknob-Avi tag … (human, UniProt P0DOX5 223-449 = IgG part, biotin on the C-terminal Avi tag)); assay: SPR Biacore, affinity (monovalent), antibody captured via anti-Fab
T2 construct: also called huFolR1-Fc; human FolR1-Fc
Description: (§3) The affinity of the interaction between the anti-FolR1 IgGs or the T cell bispecifics and the recombinant folate receptors was determined as described below (Table 39).
(§4) For affinity measurement, direct coupling of around 10000 resonance units (RU) of the anti-human Fab specific antibody (Fab capture kit, GE Healthcare) was performed on a CM5 chip at pH 5.0 using the standard amine coupling kit (GE Healthcare). Anti-FolR1 IgGs or T cell bispecifics were captured at 20 nM with a flow rate of 10 μl/min for 40 sec, the reference flow cell was left without capture. Dilution series (12.35 to 3000 nM) of human and cyno Folate Receptor 1 Fc fusion were passed on all flow cells at 30 μl/min for 240 sec to record the association phase. The dissociation phase was monitored for 300 s and triggered by switching from the sample solution to HBS-EP. The chip surface was regenerated after every cycle using a double injection of 60 sec 10 mM Glycine-HCl pH 1.5. Bulk refractive index differences were corrected for by subtracting the response obtained on the reference flow cell 1. The affinity constants for the interactions were derived from the rate constants by fitting to a 1:1 Langmuir binding using the Bia Evaluation software (GE Healthcare).

[3] = biological target: T3, recombinant biotinylated monomeric Fc fusion of cynomolgus Folate Receptor 1 (cy FolR1 ECD-AcTev-Fcknob-Avi … (cynomolgus, UniProt P0DOX5 223-449 = IgG part, biotin on the C-terminal Avi tag)); assay: as above
T3 construct: also called cyFolR1-Fc; cyno FolR1
Description: as §3, §4

[4] = biological target: T2, recombinant biotinylated monomeric Fc …; assay: SPR Biacore, avidity (bivalent, apparent KD), antigen-Fc on SA chip
Description: as §1, §2

[5] = biological target: T3, recombinant biotinylated monomeric Fc …; assay: as above
Description: as §1, §2

[6] = biological target: T4, human FolR1 expressed on cells (HeLa, SKOV3, HT-29, transfected HEK cells) (human, UniProt P15328 25-234); assay: flow cytometry on HeLa cells
T4 construct: whole, on cells; also called FolR1 on HeLa cells; human FolR1 on cells
T4 sequence (P15328 25-234): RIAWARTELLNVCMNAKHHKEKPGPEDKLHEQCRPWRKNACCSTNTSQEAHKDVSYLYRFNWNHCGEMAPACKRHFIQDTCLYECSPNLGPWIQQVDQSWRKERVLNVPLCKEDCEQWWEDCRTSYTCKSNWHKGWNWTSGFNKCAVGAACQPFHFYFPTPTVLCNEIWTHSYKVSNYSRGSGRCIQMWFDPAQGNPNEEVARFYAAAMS

[7] = biological target: T2, recombinant biotinylated monomeric Fc …; assay: SPR Biacore, single injection on immobilized antigen-Fc
How it was run: (§5)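 Biacore T200 at 25 °C in HBS-EP (HEPES pH 7.4). Biotinylated FolR-Fc fusions captured on SA chip at about 300-400 RU. IgGs injected once at 500 nM for 60 s to assess cross-reactivity and specificity.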

[8] = biological target: T3, recombinant biotinylated monomeric Fc …; assay: as above
How it was run: as §5

[9] = biological target: T5, recombinant biotinylated monomeric Fc fusion of human Folate Receptor 2 (hu FolR2 ECD-AcTev-Fcknob-Avi tag … (human, UniProt P0DOX5 223-449 = IgG part, biotin on the C-terminal Avi tag)); assay: as above
T5 construct: also called FolR2-Fc
How it was run: as §5

[10] = biological target: T6, recombinant biotinylated monomeric Fc fusion of human Folate Receptor 3 (hu FolR3 ECD-AcTev-Fcknob-Avi tag … (human, UniProt P0DOX5 223-449 = IgG part, biotin on the C-terminal Avi tag)); assay: as above
T6 construct: also called FolR3-Fc
How it was run: as §5

[11] = biological target: T4, human FolR1 expressed on cells (HeLa, …); assay: flow cytometry on transfected HEK cells
[12] = biological target: T7, human FolR2 on transfected HEK cells (human, UniProt P14207 17-230); assay: flow cytometry on transfected HEK cells
T7 construct: whole, on cells
T7 sequence (P14207 17-230): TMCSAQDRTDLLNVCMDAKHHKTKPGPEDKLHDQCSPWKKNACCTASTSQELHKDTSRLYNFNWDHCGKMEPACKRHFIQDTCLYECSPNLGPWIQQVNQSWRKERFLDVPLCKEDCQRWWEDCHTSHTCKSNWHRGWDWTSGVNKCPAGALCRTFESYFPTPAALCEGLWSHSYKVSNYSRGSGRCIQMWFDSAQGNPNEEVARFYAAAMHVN

[13] = biological target: T1, recombinant biotinylated monomeric Fc …; assay: SPR Biacore, single injection on immobilized antigen-Fc
How it was run: as §5

Row | Binder | binding result [1] | Kd [2] | koff [2] | kon [2] | Kd [3] | koff [3] | kon [3] | Kd [4] | koff [4] | kon [4] | Kd [5] | koff [5] | kon [5] | binding result [9] | binding result [10] | further results
1 | 16D5 D52dE IgG (antibody, V domains shown, IgG) VH: not shown VL: QAVVTQEPSLTVSPGGTVTLTCGSSTGAVTTSNYANWVQEKPGQAFRGLIGGTNKRAPGTPARFSGSLLGGKAALTLSGAQPEDEAEYYCALWYSNLWVFGGGTKLTVL | no binding | 95 nM | 0.00227 s⁻¹ | 24000 M⁻¹ s⁻¹ | 530 nM | 0.012 s⁻¹ | 22500 M⁻¹ s⁻¹ | 3.4 nM | 0.000545 s⁻¹ | 162000 M⁻¹ s⁻¹ | 2.5 nM | 0.00747 s⁻¹ | 2.98e+06 M⁻¹ s⁻¹ |  |  | 
2 | 9D11 IgG (antibody, V domains shown, human IgG1) VH: QVQLVQSGAEVKKPGASVKVSCKASGYTFTSYYMHWVRQAPGQGLEWMGIINPSGGPTSYAQKFQGRVTMTRDTSTSTVYMELSSLRSEDTAVYYCARGDFAWLDYWGQGTLVTVSS VL: not shown |  |  |  |  |  |  |  |  |  |  |  |  |  | no binding (tested: 500 nM) | no binding (tested: 500 nM) | binding result [11]: binds; binding result [12]: no binding; binding result [13]: no binding (tested: 500 nM)

Second part, led by results:

Row | binding result [1] | Kd [2] | koff [2] | kon [2] | Kd [3] | koff [3] | kon [3] | Kd [4] | koff [4] | kon [4] | Kd [5] | koff [5] | kon [5] | binding result [9] | binding result [10] | Binder | further results
3 | no binding | 230 nM | 0.00162 s⁻¹ | 6970 M⁻¹ s⁻¹ | 410 nM | 0.00332 s⁻¹ | 8200 M⁻¹ s⁻¹ | 9.2 nM | 0.000775 s⁻¹ | 84000 M⁻¹ s⁻¹ | 5 nM | 0.00204 s⁻¹ | 412000 M⁻¹ s⁻¹ |  |  | 16D5 D52dQ IgG (antibody, V domains shown, IgG) VH: not shown VL: QAVVTQEPSLTVSPGGTVTLTCGSSTGAVTTSNYANWVQEKPGQAFRGLIGGTNKRAPGTPARFSGSLLGGKAALTLSGAQPEDEAEYYCALWYSNLWVFGGGTKLTVL | 
4 |  |  |  |  |  |  |  |  |  |  |  |  |  | no binding (tested: 500 nM) | no binding (tested: 500 nM) | 14E4 IgG (antibody, V domains shown, human IgG1) VH: not shown VL: EIVLTQSPGTLSLSPGERATLSCRASQSVSSSYLAWYQQKPGQAPRLLIYGASSRATGIPDRFSGSGSGTDSTLTISRLEPEDFAVYYCQQPTSSPITFGQGTKVEIK | binding result [6]: no binding; binding result [7]: no binding (tested: 500 nM); binding result [8]: no binding (tested: 500 nM)
